± gives the half width of the 95% confidence interval.
Test: folding stability dG unfold (combined trypsin and chymotrypsin); higher = more stable
In short: (§1)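 Designed mini-proteins with no cysteine and under 80 residues were kept only if AlphaFold2 dimer inter-PAE was above 15. In a PA-tagged cDNA display construct, they were digested with trypsin and chymotrypsin and then sequenced. K50 was inferred by Bayesian fitting of counts, and unfolding free energy was derived per protease or combined against a sequence-predicted unfolded-state K50 and a shared folded-state K50.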

In order of rising “folding stability dG unfold” value:
1. SAGGSAGGSAGGMGPPPIETIVIEKPLSEEEYEALKKAYPDKKVTVSEIPGTPNKIATIESAGGSAGGSAGG [r17_254_JUSTAS]  0.0243 ± 0.19 kcal/mol
2. SAGGSAMFKSPSDKYFEPIAVIDLEKASPETLKALLEENPGKLLVIPKSTGKPRLIPAEELLELLGSAGGSA [r15_904_TrMRF]  0.0646 ± 0.2 kcal/mol
3. SAGGSAGGSAGGPPVLAESTFSFPDGVTVRLAFLPDGKAIAELTPPDGSKIEVEFDVDASAGGSAGGSAGGS [r10_1184_TrMRF]  0.189 ± 0.23 kcal/mol
4. SAGGMSVSFPVDSSEELKKLLPKDYLVEIVSTPPDGSKSVRVVRPEDLEIDLPEGEKYYFEIKFLPKESAGG [r13_461_TrMRF]  0.203 ± 0.19 kcal/mol
5. SAGGSAGGPSYTIQFPYPPGMPPWRLQKLLEEAGYPPPEIEYNPKNGSHWITFSPEVRDAFKELSAGGSAGG [r6_307_TrROS]  0.676 ± 0.21 kcal/mol
6. SAGGSAGGSAGEKVIRFPFKSPEEIREHIKNGRPIRFPNGKPVKITKIQPYPNGWLWITVSAGGSAGGSAGG [r11_48_TrROS]  1.12 ± 0.21 kcal/mol
7. SAGGSAGGSAKAVIFFEGASIEDVVEAVKARPEEEVLVVFPDGRVLLLTKDDVVVVVPAPFSAGGSAGGSAG [r3_269_TrMRF]  1.23 ± 0.093 kcal/mol
8. GPSPVSVSTSTSTSLSTVGNTPVLVTTTTTTTTTLSPDPTDPSVTTTTTTTTTTTTVYDPANGKPLSTTTSS [r1_406_JUSTAS]  1.83 ± 0.14 kcal/mol
9. SEKPEVTIKIEVEEREDGYLVVRVEVTFPEDPEKVELTLEMSREEAEELAKKLAEELPGVKVKVEIVELPSA [r9_374_TrROS_Hall]  2.44 ± 0.14 kcal/mol
10. SAGGSAGGSAGMKPGETYLVRIRVKVDGKWYEKEVKFKSLEELKKAGIENIEEIEIRKLPSAGGSAGGSAGG [r17_290_TrROS_Hall]  2.47 ± 0.16 kcal/mol
11. SAGGTATLVIPRIYKGSPEEAARAVQEIADALAALGYDVEVDATVYPVGDYLVVTVTVTVTAPPDSPLASAG [r5_217_TrMRF]  2.63 ± 0.15 kcal/mol
12. SAGAMQTVTLPTPDGRTVTLRHPGISVSVDPEKRTVTISVPSLGKVYTLTFAPDGTVAELSEEPIPELESAG [r5_342_JUSTAS]  2.82 ± 0.11 kcal/mol
13. SAGGSAGGSMVFESTSVYTFPEQNTVVVTKTTTTVTKTPDGSSSVSTSTTTTVLTVPPPEPLVSAGGSAGGS [r12_277_JUSTAS]  2.85 ± 0.3 kcal/mol
14. SAGGMTLKIRVKDKEKALEALKALPGIEVKEVKVEKNENGELTVTVESKEALDALKKAGIEVEEIEPSAGGS [r16_381_TrROS_Hall]  2.9 ± 0.16 kcal/mol
15. SAGGKTIVIKVKTKEQAKALAEELAKKLKDAGYTVTVTYDEETGVVTVTVTVKVNGKTKKITLVLELPSAGG [r13_641_TrROS_Hall]  3.26 ± 0.038 kcal/mol
16. SAGYWEFEIELPNGRKIEIEWQRMNGRYWFKIEVLDDNGKPVREVPIPFPNPEMPFEQMIKNAVKKILDSAG [r5_630_TrROS]  3.41 ± 0.15 kcal/mol
17. SANDKHKYEEEYPYRNPNDPGQPMPFKREREVPVQPPPVITIDADELAKELKEQGEIKIPPDGWIAIPFSAG [r14_582_TrROS]  3.51 ± 0.49 kcal/mol
18. SAGGSAGGSAGGEELEVSVSVSVTEVDGKLYLTATVTIDGKEYTFTAELTVTLPPPPPEESAGGSAGGSAGG [r7_413_TrROS_Hall]  3.71 ± 0.28 kcal/mol
19. SAGGSAGGSAPLRFEFELPGNYRVRIELEPVPDDPSAGPRYRLRIEVFDLETGEVLPFEIDGSAGGSAGGSA [r18_66_TrMRF]  3.74 ± 0.061 kcal/mol
20. MKLLKITITITVTRQFPTVPVTSTTTITLEYTTPPDDPAAIEEAKKTAEEIAKKLGATDVTVTTEEVVLESS [r1_346_JUSTAS]  3.84 ± 0.11 kcal/mol
21. SAGGMTLVLRFPSKEEALEALRELAEALGLEVEITKIEIEEREVEDPETGEKRREVLITIEVKVKPPSAGGS [r16_587_TrROS_Hall]  4.48 ± 0.29 kcal/mol

Test: folding stability dG unfold from trypsin proteolysis; higher = more stable
In short: as §1

In order of rising “folding stability dG unfold” value:
1. SAGGSAGGNLTLPPDNIKRIWHVGDGHWLIKMDDNVLMINPGNGKIQTVKKEDADKLPPGDPFFSAGGSAGG [r6_890_TrROS]  -0.473 ± 0.2 kcal/mol
2. SAGGSAGGSAGGPPVLAESTFSFPDGVTVRLAFLPDGKAIAELTPPDGSKIEVEFDVDASAGGSAGGSAGGS [r10_1184_TrMRF]  -0.214 ± 0.11 kcal/mol
3. SAGGSAGGSAGGSIEIIVRTPEMAKQMAKRIQKILADQGNPPPLKIEIHVIPPDDLPPWSAGGSAGGSAGGS [r4_472_TrROS]  -0.0989 ± 0.26 kcal/mol
4. SAGGSAGGSDPDLDIPPAPLEEIYIPGTGRLLVLYEPTGLVAAYPPSGSFEIGVYDPETGKISSAGGSAGGS [r12_420_TrMRF]  -0.0238 ± 0.073 kcal/mol
5. SNPNEPLTAEEIAKHIEEFMQEEHGIDKIKPEEFTVNPPDGYIKVEMEIEHKNPPGQKHKIDIWIPPDDLSA [r9_1002_TrROS]  0.0662 ± 0.22 kcal/mol
6. SAGGSAMFKSPSDKYFEPIAVIDLEKASPETLKALLEENPGKLLVIPKSTGKPRLIPAEELLELLGSAGGSA [r15_904_TrMRF]  0.0892 ± 0.21 kcal/mol
7. SAGGSAGGSAPWYIAIYMPGNGRKRTYPFKSADDIKEEIKEHLGPGMNPDNVEIKIIPPDDISAGGSAGGSA [r18_350_TrROS]  0.279 ± 0.14 kcal/mol
8. SAGGSAGGSAGGMGPPPIETIVIEKPLSEEEYEALKKAYPDKKVTVSEIPGTPNKIATIESAGGSAGGSAGG [r17_254_JUSTAS]  0.363 ± 0.042 kcal/mol
9. SAGGSAGGSAANVTREPRFDPSTNLVRTLVRFPDGSVREEILEITKNPDGTLTYKRFERPPSAGGSAGGSAG [r3_474_JUSTAS]  0.383 ± 0.12 kcal/mol
10. SAGGMSVSFPVDSSEELKKLLPKDYLVEIVSTPPDGSKSVRVVRPEDLEIDLPEGEKYYFEIKFLPKESAGG [r13_461_TrMRF]  0.442 ± 0.072 kcal/mol
11. SAGGSAKVKIEVIELPPGMTEEELRKLAEEKGLKVEKVDKENLLVKITAKSKEEAEKIKKELEEKLSAGGSA [r15_546_TrROS_Hall]  0.449 ± 0.14 kcal/mol
12. SAGGSAGGSKITSIEEKDGFVRITIEVDGKTETKTIPKENLPPNITFPPGAKVKIEKVSKEDLSAGGSAGGS [r12_1005_TrROS_Hall]  0.449 ± 0.04 kcal/mol
13. SAGGSAGGPSYTIQFPYPPGMPPWRLQKLLEEAGYPPPEIEYNPKNGSHWITFSPEVRDAFKELSAGGSAGG [r6_307_TrROS]  0.476 ± 0.1 kcal/mol
14. SAGGSASNLKVTYKITIGSTTITVTLPEGSEKELKKIPNAEVTPISEIEPAPPPILYFKFENNNLVSAGGSA [r15_443_JUSTAS]  0.739 ± 0.047 kcal/mol
15. SAGGSAGGSAGEKVIRFPFKSPEEIREHIKNGRPIRFPNGKPVKITKIQPYPNGWLWITVSAGGSAGGSAGG [r11_48_TrROS]  0.89 ± 0.05 kcal/mol
16. SAGMEPVSIKITKIEKTPENKDYVIVTVTPPDGVPTEIKVPIEFYKSGKLKNATAEELVKLFPEYKLESAGG [r19_74_JUSTAS]  1.13 ± 0.065 kcal/mol
17. SAGGSAGGSAKAVIFFEGASIEDVVEAVKARPEEEVLVVFPDGRVLLLTKDDVVVVVPAPFSAGGSAGGSAG [r3_269_TrMRF]  1.19 ± 0.052 kcal/mol
18. SAGGSAGGMVISLPNNYKIKLGITDAEFDEVKVYTGPNGPKKLVSGANIKLKIGISIYKSNDNSSAGGSAGG [r6_585_TrMRF]  1.24 ± 0.036 kcal/mol
19. SAGAMQTVTLPTPDGRTVTLRHPGISVSVDPEKRTVTISVPSLGKVYTLTFAPDGTVAELSEEPIPELESAG [r5_342_JUSTAS]  1.53 ± 0.03 kcal/mol
20. GPSPVSVSTSTSTSLSTVGNTPVLVTTTTTTTTTLSPDPTDPSVTTTTTTTTTTTTVYDPANGKPLSTTTSS [r1_406_JUSTAS]  1.83 ± 0.079 kcal/mol
21. SAGGSAGGSAGMKPGETYLVRIRVKVDGKWYEKEVKFKSLEELKKAGIENIEEIEIRKLPSAGGSAGGSAGG [r17_290_TrROS_Hall]  1.99 ± 0.033 kcal/mol
22. SAGGMTLKIRVKDKEKALEALKALPGIEVKEVKVEKNENGELTVTVESKEALDALKKAGIEVEEIEPSAGGS [r16_381_TrROS_Hall]  2.33 ± 0.15 kcal/mol
23. SAHTWEIWFPPGLTPEEIQEKLKEEFPGYEIDVDVERDPEPGWYRIEVTMKDPQQRRRVQKKIREILQESAG [r14_443_TrROS]  2.34 ± 0.12 kcal/mol
24. SEKPEVTIKIEVEEREDGYLVVRVEVTFPEDPEKVELTLEMSREEAEELAKKLAEELPGVKVKVEIVELPSA [r9_374_TrROS_Hall]  2.41 ± 0.17 kcal/mol
25. SAGYWEFEIELPNGRKIEIEWQRMNGRYWFKIEVLDDNGKPVREVPIPFPNPEMPFEQMIKNAVKKILDSAG [r5_630_TrROS]  2.44 ± 0.047 kcal/mol
26. SAGGKVKVKLSPEMIEALKKAGIKEGQKEVTIEVKLKDGSVYRVTITYDKKTNKITIKVEKVEKLPPSAGGS [r16_497_TrROS_Hall]  2.58 ± 0.16 kcal/mol
27. SAGGTATLVIPRIYKGSPEEAARAVQEIADALAALGYDVEVDATVYPVGDYLVVTVTVTVTAPPDSPLASAG [r5_217_TrMRF]  2.62 ± 0.099 kcal/mol
28. SAGGSAGGSMVFESTSVYTFPEQNTVVVTKTTTTVTKTPDGSSSVSTSTTTTVLTVPPPEPLVSAGGSAGGS [r12_277_JUSTAS]  2.64 ± 0.12 kcal/mol
29. SAGGSAKMKKVKITLYAKVKSLEEAKEIAEEIKKSFPSIEKVEVKTEPLEDGSLLVKVDAIFYVPESAGGSA [r15_726_TrMRF]  2.66 ± 0.072 kcal/mol
30. SAGGSAGGSAPLRFEFELPGNYRVRIELEPVPDDPSAGPRYRLRIEVFDLETGEVLPFEIDGSAGGSAGGSA [r18_66_TrMRF]  2.75 ± 0.065 kcal/mol
31. SAGGSAGGSAGGEELEVSVSVSVTEVDGKLYLTATVTIDGKEYTFTAELTVTLPPPPPEESAGGSAGGSAGG [r7_413_TrROS_Hall]  2.77 ± 0.32 kcal/mol
32. SAGGSAGGSKTITVRVKITLPNGETIEVEAEITVRPDGSITITLPDGSTITLPPGAKVEIEPVSAGGSAGGS [r20_227_TrROS_Hall]  2.99 ± 0.12 kcal/mol
33. SANDKHKYEEEYPYRNPNDPGQPMPFKREREVPVQPPPVITIDADELAKELKEQGEIKIPPDGWIAIPFSAG [r14_582_TrROS]  3.08 ± 0.4 kcal/mol
34. SAMLTILSVETHTLPNGEEIVTVTLKTPDLETLDALLAELGLTGTRDPDDPQVVTITTSREKVQEIKEKSAG [r14_777_JUSTAS]  3.34 ± 0.14 kcal/mol
35. MKLLKITITITVTRQFPTVPVTSTTTITLEYTTPPDDPAAIEEAKKTAEEIAKKLGATDVTVTTEEVVLESS [r1_346_JUSTAS]  3.34 ± 0.11 kcal/mol
36. SAGGKTIVIKVKTKEQAKALAEELAKKLKDAGYTVTVTYDEETGVVTVTVTVKVNGKTKKITLVLELPSAGG [r13_641_TrROS_Hall]  3.51 ± 0.074 kcal/mol
37. SAGGSAGGKITITLPGAEIVSVEESEDGKTITITVRLENGELLKITLKRVNGKWYITKIELLKPSAGGSAGG [r6_718_TrROS_Hall]  3.54 ± 0.086 kcal/mol
38. SAGGSAGGMTLTLELTLENGKKVRIEVEVNENGSLKVKITYPNGKKVEIEVNMSLEELLKKLLSSAGGSAGG [r6_808_TrROS_Hall]  3.75 ± 0.26 kcal/mol
39. SAGGMTLVLRFPSKEEALEALRELAEALGLEVEITKIEIEEREVEDPETGEKRREVLITIEVKVKPPSAGGS [r16_587_TrROS_Hall]  3.83 ± 0.37 kcal/mol
40. SAGGSPEVKIEIEVTERVTVFDENGKPVEEVLVVKAKITFPDGTTATITAFFYEGKWFITSIELEPSAGGSA [r2_158_TrROS_Hall]  3.84 ± 0.25 kcal/mol
41. SAGGSAGGSKEKVIEIKIKVKTKEEAKKKAEELAKELEKKGYKIKKVEIKYDKETKEVTVRIESAGGSAGGS [r20_155_TrROS_Hall]  3.9 ± 0.2 kcal/mol

Reference: the supplement of paper PMC12764529
